According to patent US20160115500A1 (University of California, published 2016):

B1: PYR1^K59R,A160I (receptor, not shown: small tags and cut ends)
chain: MPSELTPEERSELKNSIAEFHTYQLDPGSCSSLHAQRIHAPPELVWSIVRRFDKPQTYRHFIKSCSVEQNFEMRVGCTRDVIVISGLPANTSTERLDILDDERRVTGFSIIGGEHRLTNYKSVTTVHRFEKENRIWTVVLESYVVDMPEGNSEDDTRMFIDTVVKLNLQKLATVAEAMARNSGDGSGSQVT
notes: pBD-PYR1 fusion in yeast
B2: PYR1^K59R,E141F (receptor)
chain: MPSELTPEERSELKNSIAEFHTYQLDPGSCSSLHAQRIHAPPELVWSIVRRFDKPQTYRHFIKSCSVEQNFEMRVGCTRDVIVISGLPANTSTERLDILDDERRVTGFSIIGGEHRLTNYKSVTTVHRFEKENRIWTVVLFSYVVDMPEGNSEDDTRMFADTVVKLNLQKLATVAEAMARNSGDGSGSQVT
notes: pBD-PYR1 fusion in yeast
B3: PYR1^K59R,E141H (receptor, not shown: small tags and cut ends)
chain: MPSELTPEERSELKNSIAEFHTYQLDPGSCSSLHAQRIHAPPELVWSIVRRFDKPQTYRHFIKSCSVEQNFEMRVGCTRDVIVISGLPANTSTERLDILDDERRVTGFSIIGGEHRLTNYKSVTTVHRFEKENRIWTVVLHSYVVDMPEGNSEDDTRMFADTVVKLNLQKLATVAEAMARNSGDGSGSQVT
notes: pBD-PYR1 fusion in yeast
B4: PYR1^K59R,N167A (receptor, not shown: small tags and cut ends)
chain: MPSELTPEERSELKNSIAEFHTYQLDPGSCSSLHAQRIHAPPELVWSIVRRFDKPQTYRHFIKSCSVEQNFEMRVGCTRDVIVISGLPANTSTERLDILDDERRVTGFSIIGGEHRLTNYKSVTTVHRFEKENRIWTVVLESYVVDMPEGNSEDDTRMFADTVVKLALQKLATVAEAMARNSGDGSGSQVT
notes: pBD-PYR1 fusion in yeast
B5: PYR1^K59R,M158G (receptor, not shown: small tags and cut ends)
chain: MPSELTPEERSELKNSIAEFHTYQLDPGSCSSLHAQRIHAPPELVWSIVRRFDKPQTYRHFIKSCSVEQNFEMRVGCTRDVIVISGLPANTSTERLDILDDERRVTGFSIIGGEHRLTNYKSVTTVHRFEKENRIWTVVLESYVVDMPEGNSEDDTRGFADTVVKLNLQKLATVAEAMARNSGDGSGSQVT
notes: pBD-PYR1 fusion in yeast
B6: PYR1^K59R,A160T (receptor, not shown: small tags and cut ends)
chain: MPSELTPEERSELKNSIAEFHTYQLDPGSCSSLHAQRIHAPPELVWSIVRRFDKPQTYRHFIKSCSVEQNFEMRVGCTRDVIVISGLPANTSTERLDILDDERRVTGFSIIGGEHRLTNYKSVTTVHRFEKENRIWTVVLESYVVDMPEGNSEDDTRMFTDTVVKLNLQKLATVAEAMARNSGDGSGSQVT
notes: pBD-PYR1 fusion in yeast
B7: PYR1^K59R,N167S (receptor, not shown: small tags and cut ends)
chain: MPSELTPEERSELKNSIAEFHTYQLDPGSCSSLHAQRIHAPPELVWSIVRRFDKPQTYRHFIKSCSVEQNFEMRVGCTRDVIVISGLPANTSTERLDILDDERRVTGFSIIGGEHRLTNYKSVTTVHRFEKENRIWTVVLESYVVDMPEGNSEDDTRMFADTVVKLSLQKLATVAEAMARNSGDGSGSQVT
notes: pBD-PYR1 fusion in yeast
B8: PYR1^K59R,H115N (receptor)
chain: MPSELTPEERSELKNSIAEFHTYQLDPGSCSSLHAQRIHAPPELVWSIVRRFDKPQTYRHFIKSCSVEQNFEMRVGCTRDVIVISGLPANTSTERLDILDDERRVTGFSIIGGENRLTNYKSVTTVHRFEKENRIWTVVLESYVVDMPEGNSEDDTRMFADTVVKLNLQKLATVAEAMARNSGDGSGSQVT
notes: pBD-PYR1 fusion in yeast
B9: PYR1^K59R,N167D (receptor, not shown: small tags and cut ends)
chain: MPSELTPEERSELKNSIAEFHTYQLDPGSCSSLHAQRIHAPPELVWSIVRRFDKPQTYRHFIKSCSVEQNFEMRVGCTRDVIVISGLPANTSTERLDILDDERRVTGFSIIGGEHRLTNYKSVTTVHRFEKENRIWTVVLESYVVDMPEGNSEDDTRMFADTVVKLDLQKLATVAEAMARNSGDGSGSQVT
notes: pBD-PYR1 fusion in yeast
B10: PYR1^K59R,I110M (receptor, not shown: small tags and cut ends)
chain: MPSELTPEERSELKNSIAEFHTYQLDPGSCSSLHAQRIHAPPELVWSIVRRFDKPQTYRHFIKSCSVEQNFEMRVGCTRDVIVISGLPANTSTERLDILDDERRVTGFSMIGGEHRLTNYKSVTTVHRFEKENRIWTVVLESYVVDMPEGNSEDDTRMFADTVVKLNLQKLATVAEAMARNSGDGSGSQVT
notes: pBD-PYR1 fusion in yeast
B11: PYR1^K59R,N167T (receptor, not shown: small tags and cut ends)
chain: MPSELTPEERSELKNSIAEFHTYQLDPGSCSSLHAQRIHAPPELVWSIVRRFDKPQTYRHFIKSCSVEQNFEMRVGCTRDVIVISGLPANTSTERLDILDDERRVTGFSIIGGEHRLTNYKSVTTVHRFEKENRIWTVVLESYVVDMPEGNSEDDTRMFADTVVKLTLQKLATVAEAMARNSGDGSGSQVT
notes: pBD-PYR1 fusion in yeast
B12: PYR1^K59R,M158L (receptor, not shown: small tags and cut ends)
chain: MPSELTPEERSELKNSIAEFHTYQLDPGSCSSLHAQRIHAPPELVWSIVRRFDKPQTYRHFIKSCSVEQNFEMRVGCTRDVIVISGLPANTSTERLDILDDERRVTGFSIIGGEHRLTNYKSVTTVHRFEKENRIWTVVLESYVVDMPEGNSEDDTRLFADTVVKLNLQKLATVAEAMARNSGDGSGSQVT
notes: pBD-PYR1 fusion in yeast
B13: PYR1^K59R,E141L (receptor, not shown: small tags and cut ends)
chain: MPSELTPEERSELKNSIAEFHTYQLDPGSCSSLHAQRIHAPPELVWSIVRRFDKPQTYRHFIKSCSVEQNFEMRVGCTRDVIVISGLPANTSTERLDILDDERRVTGFSIIGGEHRLTNYKSVTTVHRFEKENRIWTVVLLSYVVDMPEGNSEDDTRMFADTVVKLNLQKLATVAEAMARNSGDGSGSQVT
notes: pBD-PYR1 fusion in yeast
B14: PYR1^K59R,A160S (receptor, not shown: small tags and cut ends)
chain: MPSELTPEERSELKNSIAEFHTYQLDPGSCSSLHAQRIHAPPELVWSIVRRFDKPQTYRHFIKSCSVEQNFEMRVGCTRDVIVISGLPANTSTERLDILDDERRVTGFSIIGGEHRLTNYKSVTTVHRFEKENRIWTVVLESYVVDMPEGNSEDDTRMFSDTVVKLNLQKLATVAEAMARNSGDGSGSQVT
notes: pBD-PYR1 fusion in yeast
B15: PYR1^K59R,N167Q (receptor, not shown: small tags and cut ends)
chain: MPSELTPEERSELKNSIAEFHTYQLDPGSCSSLHAQRIHAPPELVWSIVRRFDKPQTYRHFIKSCSVEQNFEMRVGCTRDVIVISGLPANTSTERLDILDDERRVTGFSIIGGEHRLTNYKSVTTVHRFEKENRIWTVVLESYVVDMPEGNSEDDTRMFADTVVKLQLQKLATVAEAMARNSGDGSGSQVT
notes: pBD-PYR1 fusion in yeast
B16: PYR1^K59R,M158A (receptor, not shown: small tags and cut ends)
chain: MPSELTPEERSELKNSIAEFHTYQLDPGSCSSLHAQRIHAPPELVWSIVRRFDKPQTYRHFIKSCSVEQNFEMRVGCTRDVIVISGLPANTSTERLDILDDERRVTGFSIIGGEHRLTNYKSVTTVHRFEKENRIWTVVLESYVVDMPEGNSEDDTRAFADTVVKLNLQKLATVAEAMARNSGDGSGSQVT
notes: pBD-PYR1 fusion in yeast
B17: PYR1^K59R,M158S (receptor, not shown: small tags and cut ends)
chain: MPSELTPEERSELKNSIAEFHTYQLDPGSCSSLHAQRIHAPPELVWSIVRRFDKPQTYRHFIKSCSVEQNFEMRVGCTRDVIVISGLPANTSTERLDILDDERRVTGFSIIGGEHRLTNYKSVTTVHRFEKENRIWTVVLESYVVDMPEGNSEDDTRSFADTVVKLNLQKLATVAEAMARNSGDGSGSQVT
notes: pBD-PYR1 fusion in yeast
B18: PYR1^K59R,A160Y (receptor, not shown: small tags and cut ends)
chain: MPSELTPEERSELKNSIAEFHTYQLDPGSCSSLHAQRIHAPPELVWSIVRRFDKPQTYRHFIKSCSVEQNFEMRVGCTRDVIVISGLPANTSTERLDILDDERRVTGFSIIGGEHRLTNYKSVTTVHRFEKENRIWTVVLESYVVDMPEGNSEDDTRMFYDTVVKLNLQKLATVAEAMARNSGDGSGSQVT
notes: pBD-PYR1 fusion in yeast
B19: PYR1^K59R,A160V (receptor, not shown: small tags and cut ends)
chain: MPSELTPEERSELKNSIAEFHTYQLDPGSCSSLHAQRIHAPPELVWSIVRRFDKPQTYRHFIKSCSVEQNFEMRVGCTRDVIVISGLPANTSTERLDILDDERRVTGFSIIGGEHRLTNYKSVTTVHRFEKENRIWTVVLESYVVDMPEGNSEDDTRMFVDTVVKLNLQKLATVAEAMARNSGDGSGSQVT
notes: pBD-PYR1 fusion in yeast
B20: PYR1^K59R,N167G (receptor, not shown: small tags and cut ends)
chain: MPSELTPEERSELKNSIAEFHTYQLDPGSCSSLHAQRIHAPPELVWSIVRRFDKPQTYRHFIKSCSVEQNFEMRVGCTRDVIVISGLPANTSTERLDILDDERRVTGFSIIGGEHRLTNYKSVTTVHRFEKENRIWTVVLESYVVDMPEGNSEDDTRMFADTVVKLGLQKLATVAEAMARNSGDGSGSQVT
notes: pBD-PYR1 fusion in yeast
B21: PYR1^K59R,A160N (receptor, not shown: small tags and cut ends)
chain: MPSELTPEERSELKNSIAEFHTYQLDPGSCSSLHAQRIHAPPELVWSIVRRFDKPQTYRHFIKSCSVEQNFEMRVGCTRDVIVISGLPANTSTERLDILDDERRVTGFSIIGGEHRLTNYKSVTTVHRFEKENRIWTVVLESYVVDMPEGNSEDDTRMFNDTVVKLNLQKLATVAEAMARNSGDGSGSQVT
notes: pBD-PYR1 fusion in yeast
B22: PYR1^K59R,E141Q (receptor, not shown: small tags and cut ends)
chain: MPSELTPEERSELKNSIAEFHTYQLDPGSCSSLHAQRIHAPPELVWSIVRRFDKPQTYRHFIKSCSVEQNFEMRVGCTRDVIVISGLPANTSTERLDILDDERRVTGFSIIGGEHRLTNYKSVTTVHRFEKENRIWTVVLQSYVVDMPEGNSEDDTRMFADTVVKLNLQKLATVAEAMARNSGDGSGSQVT
notes: pBD-PYR1 fusion in yeast

Biological target: T1, GAL4 activation domain fusion (ACT) to HAB1 (UniProt Q9CAJ0 23-511, limits assumed)
T1 construct: pACT-HAB1 fusion in yeast reporter strains; also called pACT-HAB1
T1 sequence (looked up): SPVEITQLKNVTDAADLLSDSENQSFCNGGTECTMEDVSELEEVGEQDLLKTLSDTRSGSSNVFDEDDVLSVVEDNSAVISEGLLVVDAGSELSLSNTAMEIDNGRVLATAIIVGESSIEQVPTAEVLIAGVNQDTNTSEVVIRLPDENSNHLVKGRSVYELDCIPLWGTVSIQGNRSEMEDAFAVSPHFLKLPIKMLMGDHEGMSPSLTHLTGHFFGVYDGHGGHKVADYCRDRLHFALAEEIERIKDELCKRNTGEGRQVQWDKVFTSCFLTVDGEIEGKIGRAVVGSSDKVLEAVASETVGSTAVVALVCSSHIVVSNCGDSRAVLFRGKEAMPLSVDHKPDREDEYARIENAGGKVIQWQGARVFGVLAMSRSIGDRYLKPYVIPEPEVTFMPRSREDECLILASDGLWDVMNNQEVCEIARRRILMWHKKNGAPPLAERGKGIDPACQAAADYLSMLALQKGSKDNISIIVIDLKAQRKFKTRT
Test: yeast two-hybrid, X-gal; lowest dichlobenil concentration giving signal

Threshold, 100 µM:
B1, B2, B3, B4, B5, B6, B7, B8, B9, B10, B11, B12, B13, B14, B15, B16, B17, B18, B19, B20, B21, B22
